Results published in publication PMC6823300, “The molecular basis of monopolin recruitment to the kinetochore” (Chromosoma, 2019).

B1: S. pombe Csm1 C-terminal globular domain (residues 125–261), wild type [S. pombe] / Sp Mis13 5–17 peptide (Dsn1-N/Box 1), fluorescein isothiocyanate-labelled [modified: fluorescein isothiocyanate-labelled at its N-terminus; fluorescein … (parent complex)
chain 1: NAGADADDTIVKDLKKELENEKKANHSLKNELLKTREQIKNYSKINILIKELFGLEVADCIEDEDGYRFNCKNTGRRGTLEYQLLLDDQNFTFTPRLNVQTDEELMKHLPDYLLEEIIFTKEQGKLFSARLMKALQD
chain 2: PEEQEGFVFVRKG

Variants of: B1
Experiment: fluorescence polarisation; point at 250 µM protein (highest concentration shown); parent: 140; read off a plot

Variant	response [mP]
chain 1 NAGADADDTIVKDLKKELENEKKANHSLKNELLKTREQIKNYSKINILIKELFGLEVADCIEDEDGYRFNCKNTGRRGTLEYQLLLDDQNFTFTPRLNVQTDEELMKHLPDYLLEEDIFTKEQGKLFSARLMKALQD [chain 1 I117D]	~73
